This is an account of results in publication PMC3656124, “DNA Topoisomerase II Is Involved in Regulation of Cyst Wall Protein Genes and Differentiation in Giardia lamblia” (PLoS Neglected Tropical Diseases, 2013).

In data set [1] the target is T1, Topo II (Giardia lamblia, UniProt E2RU90 1-1491).
T1 sequence: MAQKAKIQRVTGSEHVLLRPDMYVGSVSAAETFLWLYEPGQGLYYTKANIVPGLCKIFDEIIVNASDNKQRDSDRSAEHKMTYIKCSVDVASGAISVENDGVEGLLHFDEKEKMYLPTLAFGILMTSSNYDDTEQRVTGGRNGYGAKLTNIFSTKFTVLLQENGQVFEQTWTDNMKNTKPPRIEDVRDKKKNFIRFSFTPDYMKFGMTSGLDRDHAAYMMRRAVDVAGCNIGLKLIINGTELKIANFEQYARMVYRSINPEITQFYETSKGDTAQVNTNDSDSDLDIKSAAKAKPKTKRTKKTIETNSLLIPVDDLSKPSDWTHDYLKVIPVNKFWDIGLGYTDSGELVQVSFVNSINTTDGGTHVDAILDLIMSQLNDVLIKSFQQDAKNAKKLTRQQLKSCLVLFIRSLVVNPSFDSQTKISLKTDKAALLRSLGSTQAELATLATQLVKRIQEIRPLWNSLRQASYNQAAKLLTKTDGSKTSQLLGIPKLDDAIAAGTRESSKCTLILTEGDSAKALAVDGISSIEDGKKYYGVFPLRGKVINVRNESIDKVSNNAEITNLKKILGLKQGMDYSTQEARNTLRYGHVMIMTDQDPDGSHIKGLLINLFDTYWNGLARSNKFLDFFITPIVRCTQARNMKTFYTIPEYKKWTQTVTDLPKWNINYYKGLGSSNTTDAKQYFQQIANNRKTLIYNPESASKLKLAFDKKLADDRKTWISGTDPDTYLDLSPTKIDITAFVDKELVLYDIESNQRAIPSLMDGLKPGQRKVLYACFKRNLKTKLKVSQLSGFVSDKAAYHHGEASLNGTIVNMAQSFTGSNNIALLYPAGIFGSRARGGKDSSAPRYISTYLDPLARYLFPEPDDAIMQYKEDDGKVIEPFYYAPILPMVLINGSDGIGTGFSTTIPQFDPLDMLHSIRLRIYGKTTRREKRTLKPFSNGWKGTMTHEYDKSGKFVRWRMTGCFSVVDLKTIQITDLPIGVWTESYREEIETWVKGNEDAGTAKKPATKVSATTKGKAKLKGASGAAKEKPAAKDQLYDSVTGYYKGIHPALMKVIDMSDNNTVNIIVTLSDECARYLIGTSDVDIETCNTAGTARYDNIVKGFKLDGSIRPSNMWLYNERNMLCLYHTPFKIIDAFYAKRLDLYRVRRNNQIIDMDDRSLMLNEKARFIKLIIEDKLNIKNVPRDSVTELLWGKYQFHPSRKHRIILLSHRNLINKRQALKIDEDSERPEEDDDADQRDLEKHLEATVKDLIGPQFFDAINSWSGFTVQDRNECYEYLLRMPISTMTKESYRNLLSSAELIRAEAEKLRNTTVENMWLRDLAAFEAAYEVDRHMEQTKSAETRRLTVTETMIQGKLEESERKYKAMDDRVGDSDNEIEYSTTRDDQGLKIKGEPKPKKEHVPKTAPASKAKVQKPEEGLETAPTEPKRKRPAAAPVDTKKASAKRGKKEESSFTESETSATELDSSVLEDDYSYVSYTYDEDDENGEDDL
Nature of the data set: EMSA; EMSA: 0.02 pmol 5'-labeled probe, 5 ng protein, 20 ul, 0.5 ug poly(dI-dC), 15 min, room temperature, 6% acrylamide gel; buffer, salt and pH only by citation. The following applies: protein: recombinant; tags: C-terminal V5-His; chain copies: 2; label: 5'-32P.

Data set [2] addresses T2, Topo IIN (Giardia lamblia, UniProt E2RU90 1-488).
T2 sequence: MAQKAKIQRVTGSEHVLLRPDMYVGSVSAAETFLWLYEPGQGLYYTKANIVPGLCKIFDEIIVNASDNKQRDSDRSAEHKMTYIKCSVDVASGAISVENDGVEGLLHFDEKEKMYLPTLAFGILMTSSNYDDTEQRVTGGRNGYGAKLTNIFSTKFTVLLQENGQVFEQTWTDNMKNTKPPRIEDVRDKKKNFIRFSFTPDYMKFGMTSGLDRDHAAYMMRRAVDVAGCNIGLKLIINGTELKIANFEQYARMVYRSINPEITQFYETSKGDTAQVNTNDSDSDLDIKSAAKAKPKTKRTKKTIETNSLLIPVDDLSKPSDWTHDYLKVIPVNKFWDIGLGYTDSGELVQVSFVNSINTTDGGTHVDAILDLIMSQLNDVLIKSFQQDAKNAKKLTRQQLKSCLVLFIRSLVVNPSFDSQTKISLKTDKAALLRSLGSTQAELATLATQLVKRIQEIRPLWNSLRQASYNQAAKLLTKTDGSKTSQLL
The description is as above. The note with it: protein: recombinant; tags: C-terminal V5-His; label: 5'-32P.

B1: IIBS (dsDNA)
DNA 1: ATGAAATCTAACAATGCGCTCATCGTCATCCTCGGC
DNA 2: GCCGAGGATGACGATGAGCGCATTGTTAGATTTCAT
Regarding B1, the binding result in data set [1] is recorded as “binds”; in data set [2] it was “no binding”.
